The source of these data is patent publication US20120321619A1 (Bayer, published 2012).

In experiment [1] the target is T1, recombinant soluble human C4.4a (human, UniProt O95274 31-308).
T1 construct: recombinant, soluble, purified protein; also called hC4.4a; full length C4.4a
T1 sequence: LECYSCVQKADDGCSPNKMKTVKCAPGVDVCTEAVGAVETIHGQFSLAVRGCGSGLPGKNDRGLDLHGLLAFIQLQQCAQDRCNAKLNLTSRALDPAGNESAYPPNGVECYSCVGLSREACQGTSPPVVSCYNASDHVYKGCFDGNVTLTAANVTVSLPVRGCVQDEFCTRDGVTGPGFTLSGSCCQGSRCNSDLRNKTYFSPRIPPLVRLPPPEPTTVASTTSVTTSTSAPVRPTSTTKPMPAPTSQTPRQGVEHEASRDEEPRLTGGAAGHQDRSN
Put plainly: ELISA, IgG1 on coated recombinant human C4.4a. How it is done: FIG. 2 depicts binding curves of anti-C4.4 antibody M31-B01 and M20 D02 S-A on recombinant human C4.4a (A) and murine C4.4a (B) respectively. Briefly, 96-well MTP were coated for 16 h at 4° C. with recombinant human or mouse C4.4a (100 ng/well plates were washed 3 times with PBS/0.05% Tween 20 (=buffer B) treated with blocking reagent (PBS+2% BSA), and washed again 3 times with buffer B. After that anti C4.4a antibodies of the invention were added in concentrations of 0.39 ng to 400 ng/per well and incubated for one hour at 20° C. After washing 3 times with buffer B, 20 ng of Protein A were added in 100 μl buffer B to each well. Color reaction was developed by addition of 50 W 3,3′,5,5′-Tetramethylbenzidine (TMB) (Sigma). Data for EC₅₀ determination were recorded after 18 min by measuring extinction […] a Tecan infinite plate reader. EC₅₀ values for M31-B01 were 0.24 and 0.29 nM on human and murine C4.4a, respectively. And for M20-D02 S-A EC₅₀ values were 0.3 and 0.38 nM on human and murine C4.4a, respectively. This indicates high affinity binding of anti C4.4a antibodies of the invention to both human and murine soluble recombinant C4.4a.
A general note: In an ELISA, binding on a coated surface is turned into a signal by an enzyme label.

Experiment [2] addresses T2, human C4.4a natively expressed on tumor cell lines (human, UniProt O95274 31-326).
T2 construct: whole, on cells; also called NCI H292; NCI H322
T2 sequence (looked up): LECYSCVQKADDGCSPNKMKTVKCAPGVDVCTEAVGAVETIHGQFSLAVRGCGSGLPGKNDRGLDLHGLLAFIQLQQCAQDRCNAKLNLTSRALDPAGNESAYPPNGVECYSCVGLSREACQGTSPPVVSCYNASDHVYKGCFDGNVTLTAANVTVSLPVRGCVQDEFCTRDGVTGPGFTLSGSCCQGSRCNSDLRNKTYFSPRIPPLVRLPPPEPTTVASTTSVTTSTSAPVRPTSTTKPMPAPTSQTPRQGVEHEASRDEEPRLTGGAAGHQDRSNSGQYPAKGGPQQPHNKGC
Put plainly: FACS titration of IgG1 on NCI H292 cells. The protocol:
FACS titration was performed in a 96 well microtiter plate, in which serial dilutions of the primary antibody in a volume of 50 W of FACS buffer (3% FCS, in PBS) were mixed with 50 μl of a cell suspension consisting of 2×10^5 cells/ml which had been detached with Cell Dissociation Solution (1×) Non-enzymatic (Sigma), and resuspended in FACS buffer. Incubation was performed at 4° C. for 1 hour with agitation. Cells were pelleted, washed with FACS buffer and resuspended in 100 μl/well of Phycoerythrin labeled goat anti human IgG (Dianova) solution in FACS buffer. Incubation and washing was performed as before. Analysis of cell-bound antibodies was done at the respective detection wavelength using the FACS Array device. EC₅₀ values were determined from fluorescence medians of duplicates using Swift 8.0 software.

Experiment [3] concerns the target T1, recombinant soluble human C4.4a. Put plainly: SPR (Biacore T100), IgG1 captured by anti-human Fc, soluble C4.4a injected, 1:1 fit. How it is done:
(§1) Binding affinities of anti C4.4 antibodies were determined by surface plasmon resonance analysis on a Biacore T100 instrument (GE Healthcare Biacore, Inc.). Antibodies were immobilized onto a CM5 sensor chip through an indirect capturing reagent, anti-human IgG Fc. Reagents from the “Human Antibody Capture Kit” (BR-1008-39, GE Healthcare Biacore, Inc.) were used as described by the manufacturer. Approximately 5000 RU monoclonal mouse anti-human IgG (Fc) antibody were immobilized per cell. Anti C4.4 antibodies were injected at a concentration of 5 μg/ml at 10 μl/min for 10 sec to reach a capturing level of approximately 200 to 600 RU. Various concentrations (400 nM, 200 nM, 100 nM, 50 nM, 25 nM, 12.5 nM, 6.25 nM, and 3.12 nM) in HEPES-EP buffer (GE Healthcare Biacore, Inc.) of human or murine C4.4a were injected over immobilized anti C4.4a antibodies at a flow rate of 60 μl/min for 3 minutes and the dissociation was allowed for 10 minutes. Sensograms were generated after in-line reference cell correction followed by buffer sample subtraction. The dissociation equilibrium constant (KD) was calculated based on the ratio of association (kₒₙ) and dissociation rated (koff) constants, obtained by fitting sensograms with a first order 1:1 binding model using Biavaluation Software (version 4.0).
(Surface plasmon resonance follows binding to a sensor surface in real time, without labels.)

The target in experiment [4] is T3, recombinant soluble murine C4.4a (mouse, UniProt Q91YK8 33-343, limits assumed).
T3 construct: also called mouse C4.4a; mC4.4a
T3 sequence (looked up): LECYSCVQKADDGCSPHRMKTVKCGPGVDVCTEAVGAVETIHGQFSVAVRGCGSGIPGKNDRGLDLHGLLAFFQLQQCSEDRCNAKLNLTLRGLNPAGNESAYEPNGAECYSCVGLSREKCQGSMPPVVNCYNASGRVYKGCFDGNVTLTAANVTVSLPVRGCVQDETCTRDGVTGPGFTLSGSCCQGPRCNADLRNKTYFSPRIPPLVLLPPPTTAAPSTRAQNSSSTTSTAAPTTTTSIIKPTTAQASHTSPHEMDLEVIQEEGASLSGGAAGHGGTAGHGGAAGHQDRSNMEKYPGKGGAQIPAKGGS
The description is as above. The protocol:
as §1

Experiment [5] deals with T4, human C4.4a on transfected A549:hC4.4a cells (human, UniProt O95274 31-326).
T4 sequence: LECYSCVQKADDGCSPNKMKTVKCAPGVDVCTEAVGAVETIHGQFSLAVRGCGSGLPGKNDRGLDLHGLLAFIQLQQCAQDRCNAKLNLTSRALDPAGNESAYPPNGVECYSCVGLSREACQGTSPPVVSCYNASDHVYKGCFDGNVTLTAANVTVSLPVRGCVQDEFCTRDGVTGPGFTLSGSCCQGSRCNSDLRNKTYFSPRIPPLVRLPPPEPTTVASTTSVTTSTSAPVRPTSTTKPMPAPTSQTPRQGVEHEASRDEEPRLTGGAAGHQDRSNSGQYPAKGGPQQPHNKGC
Put plainly: cell-based or functional assay.

B1: M31-B01 (antibody, human IgG1, V domains shown)
VH: EVQLLESGGGLVQPGGSLRLSCAASGFTFSNAWMSWVRQAPGKGLEWVSYISSSGSTIYYADSVKGRFTISRDNSKNTLYLQMNSLRAEDTAVYYCAREGLWAFDYWGQGTLVTVTS
VL: QSVLTQPPSASGTPGQRVTISCTGSSSNIGAGYVVHWYQQLPGTAPKLLIYDNNKRPSGVPDRFSGSKSGTSASLAISGLRSEDEADYYCAAWDDRLNGPVFGGGTKLTVLG
notes: tested as human IgG1
A word on the EC50: it is the concentration that produces a half-maximal response. Usually Kd stands for a measure of binding affinity in units of concentration. As for B1, the values for the EC50 in experiment [1] and in experiment [2] were 0.24 nM and 0.3 nM, respectively. Further, the Kd in experiment [3] was 70 nM; in experiment [4] it was 130 nM. The “internalization t½ [min] into A549:hC4.4a cells (CypHer 5E labeled antibody)” value in experiment [5] was 49 min.

B2: M20-D02 S-A (antibody, human IgG1, V domains shown)
VH: EVQLLESGGGLVQPGGSLRLSCAASGFTFSDYQMTWIRQTPGKGLEWVSGVSWNGARTHYADSVKGRFTISRDNSKNTLYLQMNSLRAEDTAVYYCAKGDYLVYSAYYFDSWGQGTLVTVTS
VL: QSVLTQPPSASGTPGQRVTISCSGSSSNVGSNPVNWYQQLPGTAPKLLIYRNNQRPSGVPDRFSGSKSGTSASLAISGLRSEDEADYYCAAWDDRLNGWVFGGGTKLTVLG
notes: tested as human IgG1
On to B2, for which the EC50 in experiment [1] was determined as 0.3 nM; in experiment [2] it was 1.3 nM. Further, the Kd in experiment [3] stood at 220 nM; in experiment [4], 180 nM. In experiment [5], the “internalization t½ [min] into A549:hC4.4a cells (CypHer 5E labeled antibody)” value is 60 min.
